The target in one assay is T1, FMR1 (Homo sapiens, UniProt Q06787).
T1 construct: endogenous in cells; host or cells: HEK293 Flp-In/T-REx cells
As to the kind of experiment: Flag IP-MS of i53/i53-DM baits: prey FMR1. Particulars: 293T Flp-In/T-Rex extracts, LC-MS/MS, one column per replicate IP. The assay is classed as binding. The procedure:
(§1) Following immunoprecipitation of Flag-tagged i53 and i-53-DM from HEK293 Flp-In/T-REx cells, peptides were identified using LC-MS/MS. Proteins were digested in solution with trypsin (Sigma, T7575-1KT) and dried to completeness. For LC-MS/MS analysis, peptides were reconstituted in 5% formic acid and loaded onto a 12-15 cm fused silica column with pulled tip packed in-house with 3.5 μm Zorbax C18 (Agilent Technologies, Calif., USA).
(§2) i53 and i53-DM precipitates were analyzed using an LTQ (Thermo Scientific) coupled to an Agilent 1100 Series HPLC (Agilent Technologies). Peptides were eluted from the column using a 90 min period cycle with a linear gradient from 0% to 40% ACN in 0.1% formic acid. Tandem MS spectra were acquired in a data-dependent mode for the top 5 (LTQ) most abundant ions using collision-induced dissociation. Acquired spectra were searched against the human Refseq_V53 database using Mascot (Matrix Science).
(§3) 293T Flp-In/T-Rex cell lines were generated that expressed Flag-tagged i53 or i53-DM under the control of a tetracycline-inducible promoter as previously described. Nine IP-MS experiments were analyzed (3 biological replicate IPs each for control i53- and i53-DM expressing cell lines). The interacting proteins were identified by MASCOT to identify high-confidence interactors for i53. […]

The next assay deals with T2, TXNDC12 (Homo sapiens, UniProt O95881).
T2 construct: endogenous in cells; host or cells: HEK293 Flp-In/T-REx
T2 sequence (O95881 27-172): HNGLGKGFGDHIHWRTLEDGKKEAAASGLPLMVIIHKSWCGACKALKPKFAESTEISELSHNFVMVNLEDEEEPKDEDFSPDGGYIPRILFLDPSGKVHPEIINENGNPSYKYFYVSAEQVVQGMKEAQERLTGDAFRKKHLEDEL
As to the kind of experiment: Flag IP-MS of i53/i53-DM baits: prey TXNDC12. The format is binding. Particulars: 293T Flp-In/T-Rex extracts, LC-MS/MS, one column per replicate IP. The procedure:
as §1, §2, §3

The target in a further assay is T3, RPL24 (Homo sapiens, UniProt P83731).
T3 construct: endogenous in cells; host or cells: HEK293 Flp-In/T-REx
The assay can be described thus: Flag IP-MS of i53/i53-DM baits: prey RPL24. The assay is classed as binding. Particulars: 293T Flp-In/T-Rex extracts, LC-MS/MS, one column per replicate IP. The procedure: as §1, §2, §3

Another assay has as its target T4, INTS3 (Homo sapiens, UniProt Q68E01).
T4 construct: Following immunoprecipitation of Flag-tagged i53 and i-53-DM from HEK293 Flp-In/T-REx cells, peptides were identified using LC-MS/MS; endogenous in cells; host or cells: HEK293 Flp-In/T-REx cells
As to the kind of experiment: Flag IP-MS of i53/i53-DM baits: prey INTS3. The assay is classed as binding. Particulars: 293T Flp-In/T-Rex extracts, LC-MS/MS, one column per replicate IP. The method, then:
as §1, §2, §3

The target in a further assay is T5, RPL8 (Homo sapiens, UniProt P62917).
T5 construct: Following immunoprecipitation of Flag-tagged i53 and i-53-DM from HEK293 Flp-In/T-REx cells, peptides were identified using LC-MS/MS; endogenous in cells; host or cells: HEK293 Flp-In/T-REx cells
As to the kind of experiment: Flag IP-MS of i53/i53-DM baits: prey RPL8. Particulars: 293T Flp-In/T-Rex extracts, LC-MS/MS, one column per replicate IP. The assay is classed as binding. The procedure: as §1, §2, §3

A further assay deals with T6, TRIOBP (Homo sapiens, UniProt Q9H2D6).
T6 construct: endogenous in cells; host or cells: HEK293 Flp-In/T-REx
T6 sequence (Q9H2D6 whole entry): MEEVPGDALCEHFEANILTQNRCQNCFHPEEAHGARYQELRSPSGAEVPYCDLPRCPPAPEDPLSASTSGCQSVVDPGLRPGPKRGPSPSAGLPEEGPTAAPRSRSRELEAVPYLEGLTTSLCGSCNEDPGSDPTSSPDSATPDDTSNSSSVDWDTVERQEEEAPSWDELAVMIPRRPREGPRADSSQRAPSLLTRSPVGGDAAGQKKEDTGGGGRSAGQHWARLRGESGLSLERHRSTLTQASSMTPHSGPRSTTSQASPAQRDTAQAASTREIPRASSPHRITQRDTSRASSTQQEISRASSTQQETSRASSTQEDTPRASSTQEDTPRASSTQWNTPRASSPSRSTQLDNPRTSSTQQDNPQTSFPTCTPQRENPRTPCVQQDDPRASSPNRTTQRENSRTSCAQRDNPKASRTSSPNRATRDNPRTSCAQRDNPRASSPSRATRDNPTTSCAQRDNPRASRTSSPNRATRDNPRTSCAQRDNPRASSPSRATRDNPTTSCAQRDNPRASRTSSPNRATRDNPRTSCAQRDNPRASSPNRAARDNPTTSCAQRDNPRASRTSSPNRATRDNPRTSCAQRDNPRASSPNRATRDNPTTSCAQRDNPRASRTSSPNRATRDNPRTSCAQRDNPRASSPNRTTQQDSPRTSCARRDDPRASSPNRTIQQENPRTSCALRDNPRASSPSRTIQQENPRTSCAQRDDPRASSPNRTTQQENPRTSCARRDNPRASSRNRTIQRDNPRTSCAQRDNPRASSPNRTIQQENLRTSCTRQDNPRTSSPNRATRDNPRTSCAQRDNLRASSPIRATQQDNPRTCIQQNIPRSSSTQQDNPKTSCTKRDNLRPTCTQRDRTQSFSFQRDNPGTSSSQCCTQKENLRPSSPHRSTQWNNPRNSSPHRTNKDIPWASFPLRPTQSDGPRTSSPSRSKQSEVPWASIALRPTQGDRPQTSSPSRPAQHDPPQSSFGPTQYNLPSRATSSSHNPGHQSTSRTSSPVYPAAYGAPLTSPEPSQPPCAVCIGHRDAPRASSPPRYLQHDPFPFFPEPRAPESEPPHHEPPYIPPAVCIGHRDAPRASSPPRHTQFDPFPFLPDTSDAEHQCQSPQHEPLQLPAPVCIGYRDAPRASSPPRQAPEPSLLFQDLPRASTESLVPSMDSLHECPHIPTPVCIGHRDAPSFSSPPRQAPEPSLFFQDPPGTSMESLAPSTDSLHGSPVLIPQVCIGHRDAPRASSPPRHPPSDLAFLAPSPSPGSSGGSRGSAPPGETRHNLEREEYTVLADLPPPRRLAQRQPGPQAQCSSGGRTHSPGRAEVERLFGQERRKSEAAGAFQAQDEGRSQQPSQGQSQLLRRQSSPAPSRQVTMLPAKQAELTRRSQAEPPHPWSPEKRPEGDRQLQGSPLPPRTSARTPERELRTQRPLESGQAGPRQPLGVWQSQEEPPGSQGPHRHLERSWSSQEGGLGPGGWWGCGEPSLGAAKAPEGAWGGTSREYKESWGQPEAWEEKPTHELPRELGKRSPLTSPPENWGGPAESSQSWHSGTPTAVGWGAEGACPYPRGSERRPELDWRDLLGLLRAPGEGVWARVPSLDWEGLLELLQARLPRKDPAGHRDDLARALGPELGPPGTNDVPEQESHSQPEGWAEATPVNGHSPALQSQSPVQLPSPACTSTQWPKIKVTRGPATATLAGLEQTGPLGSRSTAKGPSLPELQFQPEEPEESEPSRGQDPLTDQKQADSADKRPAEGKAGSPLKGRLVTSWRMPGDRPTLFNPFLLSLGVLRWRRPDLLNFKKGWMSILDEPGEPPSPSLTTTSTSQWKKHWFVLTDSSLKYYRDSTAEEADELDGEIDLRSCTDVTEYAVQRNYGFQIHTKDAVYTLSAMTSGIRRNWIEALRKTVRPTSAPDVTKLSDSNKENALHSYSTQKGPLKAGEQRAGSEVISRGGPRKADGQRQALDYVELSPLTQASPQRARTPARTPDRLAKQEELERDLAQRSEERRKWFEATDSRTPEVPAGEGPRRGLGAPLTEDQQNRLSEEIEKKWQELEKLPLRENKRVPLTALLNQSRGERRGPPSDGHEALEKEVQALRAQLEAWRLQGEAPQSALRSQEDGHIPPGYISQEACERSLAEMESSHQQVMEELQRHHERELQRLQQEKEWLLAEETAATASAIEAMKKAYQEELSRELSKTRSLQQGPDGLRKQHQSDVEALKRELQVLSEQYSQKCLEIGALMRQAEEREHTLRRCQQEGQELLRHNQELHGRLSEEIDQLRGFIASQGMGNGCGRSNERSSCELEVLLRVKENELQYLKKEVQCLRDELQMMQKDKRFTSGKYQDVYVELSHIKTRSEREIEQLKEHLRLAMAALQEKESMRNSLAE
The assay can be described thus: Flag IP-MS of i53/i53-DM baits: prey TRIOBP. The format is binding. The note with it: 293T Flp-In/T-Rex extracts, LC-MS/MS, one column per replicate IP. The method, then:
as §1, §2, §3

Another assay addresses T7, RPL29 (Homo sapiens, UniProt P47914).
T7 construct: endogenous in cells; host or cells: HEK293 Flp-In/T-REx cells
As to the kind of experiment: Flag IP-MS of i53/i53-DM baits: prey RPL29. The format is binding. The note with it: 293T Flp-In/T-Rex extracts, LC-MS/MS, one column per replicate IP. The method, then: as §1, §2, §3

For the next assay, the target named is T8, KDM5B (Homo sapiens, UniProt Q9UGL1).
T8 construct: endogenous in cells; host or cells: HEK293 Flp-In/T-REx
T8 sequence (Q9UGL1 whole entry): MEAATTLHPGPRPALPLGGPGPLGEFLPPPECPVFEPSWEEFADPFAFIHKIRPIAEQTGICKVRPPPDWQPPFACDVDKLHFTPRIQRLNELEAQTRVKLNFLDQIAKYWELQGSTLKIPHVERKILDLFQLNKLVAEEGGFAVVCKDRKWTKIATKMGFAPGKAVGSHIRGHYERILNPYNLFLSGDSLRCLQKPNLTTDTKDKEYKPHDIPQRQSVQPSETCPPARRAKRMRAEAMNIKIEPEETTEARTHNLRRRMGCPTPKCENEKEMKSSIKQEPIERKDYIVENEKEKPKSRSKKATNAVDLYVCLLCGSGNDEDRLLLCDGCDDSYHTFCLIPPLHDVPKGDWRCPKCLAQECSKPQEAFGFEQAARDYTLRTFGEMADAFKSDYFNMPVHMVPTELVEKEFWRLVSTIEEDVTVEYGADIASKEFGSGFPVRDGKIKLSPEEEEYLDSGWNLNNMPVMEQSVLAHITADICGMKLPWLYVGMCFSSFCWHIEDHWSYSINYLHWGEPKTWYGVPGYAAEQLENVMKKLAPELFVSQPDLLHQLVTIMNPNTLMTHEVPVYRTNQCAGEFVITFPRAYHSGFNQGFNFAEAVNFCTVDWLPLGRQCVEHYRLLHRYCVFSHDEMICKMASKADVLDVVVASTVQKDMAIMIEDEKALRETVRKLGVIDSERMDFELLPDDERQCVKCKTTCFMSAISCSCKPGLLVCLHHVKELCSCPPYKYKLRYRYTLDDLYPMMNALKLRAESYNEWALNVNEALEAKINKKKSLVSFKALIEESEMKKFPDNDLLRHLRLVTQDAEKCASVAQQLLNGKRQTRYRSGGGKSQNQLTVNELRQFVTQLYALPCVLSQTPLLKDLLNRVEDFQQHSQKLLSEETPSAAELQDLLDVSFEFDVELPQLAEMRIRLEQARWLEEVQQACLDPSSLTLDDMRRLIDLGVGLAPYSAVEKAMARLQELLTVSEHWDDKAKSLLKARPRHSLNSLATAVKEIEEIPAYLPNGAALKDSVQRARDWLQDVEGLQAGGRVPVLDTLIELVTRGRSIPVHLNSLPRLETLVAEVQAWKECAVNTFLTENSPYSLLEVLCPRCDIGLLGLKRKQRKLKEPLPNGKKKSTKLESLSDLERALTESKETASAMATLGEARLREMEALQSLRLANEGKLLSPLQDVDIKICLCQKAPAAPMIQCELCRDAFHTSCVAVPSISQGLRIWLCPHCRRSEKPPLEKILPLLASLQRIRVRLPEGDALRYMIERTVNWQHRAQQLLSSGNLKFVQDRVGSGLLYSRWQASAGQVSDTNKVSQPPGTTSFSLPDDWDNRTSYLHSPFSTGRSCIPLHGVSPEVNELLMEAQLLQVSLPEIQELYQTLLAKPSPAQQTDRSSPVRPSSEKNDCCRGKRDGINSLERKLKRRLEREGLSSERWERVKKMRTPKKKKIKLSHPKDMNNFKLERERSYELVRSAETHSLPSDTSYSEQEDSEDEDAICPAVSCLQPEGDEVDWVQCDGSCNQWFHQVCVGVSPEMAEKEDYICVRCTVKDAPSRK
As to the kind of experiment: Flag IP-MS of i53/i53-DM baits: prey KDM5B. The assay is classed as binding. Particulars: 293T Flp-In/T-Rex extracts, LC-MS/MS, one column per replicate IP. The procedure: as §1, §2, §3

In assay [1] the test system is MMEJ in U2OS EJ2-GFP cells. As to the kind of experiment: EJ2-GFP reporter assay for MMEJ. The format is cell-based. The note with it: GFP-positive cells 48 h post-transfection, N=4. The procedure: FIG. 8 (Related to FIG. 3.) FIG. 8A, Immunoblots of whole cell lysates prepared from U2OS DR-GFP cells transfected with vectors expressing Flag-tagged i53, its DM mutant or an empty vector along with an I-SceI expression vector and probed with the indicated antibodies. FIG. 8B, U2OS DR-GFP cells were transfected with the vectors expressing Flag-tagged i53 or the DM mutant along with an I-SceI expression vector. Cells were treated either with DMSO (−) or 1 μM SCR7 (+). The percentage of GFP-positive cells was determined 48 h post-transfection for each condition and was normalized to the DM condition (mean±s.d., N=4). FIG. 8C, Control immunoblot of the experiment shown in (b). FIG. 8D, Immunoblots of whole cell lysates prepared from U2OS DR-GFP cells transfected with the indicated siRNAs along with an I-Scel expression vector and probed with the indicated antibodies. […] The percentage of GFP-positive cells was determined 48 h post-transfection for each condition and was normalized to the empty vector condition (mean±s.d., N=4). […]
The direct repeat (DR)-GFP assay to measure the frequency of HR and the strand annealing EJ2-GFP assay to measure the frequency of MMEJ were performed as previously described. […] 48 h post-plasmid transfection, the cells were trypsinized and the percentage of GFP-expressing cells was analyzed using the BD FACSCalibur flow cytometer.

These results are taken from patent US10808017B2, “Ubiquitin variants and uses therof as 53BP1 inhibitors” (The Governing Council of the University of Toronto, priority 2016, dated 2020).

T4 sequence (Q68E01 whole entry): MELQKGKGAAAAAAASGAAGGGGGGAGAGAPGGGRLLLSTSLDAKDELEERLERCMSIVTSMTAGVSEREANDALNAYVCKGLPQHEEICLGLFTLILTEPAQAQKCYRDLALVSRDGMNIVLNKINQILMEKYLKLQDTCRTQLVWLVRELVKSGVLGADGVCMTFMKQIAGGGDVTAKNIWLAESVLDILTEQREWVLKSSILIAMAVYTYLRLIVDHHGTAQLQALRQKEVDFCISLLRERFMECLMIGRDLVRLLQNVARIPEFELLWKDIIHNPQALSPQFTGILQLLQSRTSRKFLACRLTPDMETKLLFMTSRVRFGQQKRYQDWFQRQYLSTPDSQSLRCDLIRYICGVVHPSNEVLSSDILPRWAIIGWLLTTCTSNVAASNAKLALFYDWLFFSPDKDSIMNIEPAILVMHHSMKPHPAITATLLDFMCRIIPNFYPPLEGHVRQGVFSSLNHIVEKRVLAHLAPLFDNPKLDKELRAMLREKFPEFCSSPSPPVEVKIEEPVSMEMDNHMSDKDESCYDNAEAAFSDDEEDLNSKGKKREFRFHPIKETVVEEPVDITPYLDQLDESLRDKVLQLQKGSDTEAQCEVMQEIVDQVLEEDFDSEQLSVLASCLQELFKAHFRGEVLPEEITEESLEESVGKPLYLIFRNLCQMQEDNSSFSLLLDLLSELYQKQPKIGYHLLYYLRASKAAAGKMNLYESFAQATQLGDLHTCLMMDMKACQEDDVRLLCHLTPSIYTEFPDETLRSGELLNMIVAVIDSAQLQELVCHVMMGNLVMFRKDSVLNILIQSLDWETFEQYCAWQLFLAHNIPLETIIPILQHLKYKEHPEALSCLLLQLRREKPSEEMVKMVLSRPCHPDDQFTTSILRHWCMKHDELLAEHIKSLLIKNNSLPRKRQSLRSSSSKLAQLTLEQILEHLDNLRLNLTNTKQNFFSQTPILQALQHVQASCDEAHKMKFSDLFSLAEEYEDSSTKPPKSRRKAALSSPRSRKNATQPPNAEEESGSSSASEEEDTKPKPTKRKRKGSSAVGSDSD

In the case of “i53-DM: 53BP1-binding deficient mutant of i53 (P69L, L70V)”, in the assay with FMR1, the “Total peptides, FMR1” value turned out to be 6. The “Total peptides, TXNDC12” value with TXNDC12 came out at 2. The “Total peptides, RPL24” value with RPL24 stood at 5. Moreover, in the assay with INTS3, the “Total peptides, INTS3” value turned out to be 3. Further, in the assay with RPL8, the “Total peptides, RPL8” value is 5. Moreover, in the assay with TRIOBP, the “Total peptides, TRIOBP” value is 3. The “Total peptides, RPL29” value in the assay with RPL29 is recorded as 3. Besides, the “Total peptides, KDM5B” value in the assay with KDM5B came out at 3. Also, the “Increase in MMEJ over the empty vector” value in assay [1] is 1.3+/−0.1 fold.

Turning to “i53: UbvG08 with C-terminal di-glycine removed and I44A mutation; genetically encoded inhibitor of 53BP1”, the “Total peptides, RPL24” value with RPL24 is recorded as 5. For the same substance, the “Increase in MMEJ over the empty vector” value in assay [1] is given as 1.4+/−0.15 fold.
